Reference: patent publication US20110123549A1 (KALOBIOS PHARMACEUTICALS, published 2011)
Where a chain is given by its changes, count along the chain named.

How the values were obtained:
[1] = biological target: T1, EphA3 expressed on the surface of human cells (SKmel28 human melanoma, LnCAP prostate cancer line, primary … (human, UniProt P29320 21-983)); assay: flow cytometry on live SKmel-28 cells, 5 ug/ml IgG, anti-human IgG phycoerythrin conjugate [SKmel-28]
T1 construct: whole, on cells; It gives no species for LnCAP, and the leukemia cells come from patients; also called SKme128; primary leukemia cells expressing EphA3
T1 sequence (looked up): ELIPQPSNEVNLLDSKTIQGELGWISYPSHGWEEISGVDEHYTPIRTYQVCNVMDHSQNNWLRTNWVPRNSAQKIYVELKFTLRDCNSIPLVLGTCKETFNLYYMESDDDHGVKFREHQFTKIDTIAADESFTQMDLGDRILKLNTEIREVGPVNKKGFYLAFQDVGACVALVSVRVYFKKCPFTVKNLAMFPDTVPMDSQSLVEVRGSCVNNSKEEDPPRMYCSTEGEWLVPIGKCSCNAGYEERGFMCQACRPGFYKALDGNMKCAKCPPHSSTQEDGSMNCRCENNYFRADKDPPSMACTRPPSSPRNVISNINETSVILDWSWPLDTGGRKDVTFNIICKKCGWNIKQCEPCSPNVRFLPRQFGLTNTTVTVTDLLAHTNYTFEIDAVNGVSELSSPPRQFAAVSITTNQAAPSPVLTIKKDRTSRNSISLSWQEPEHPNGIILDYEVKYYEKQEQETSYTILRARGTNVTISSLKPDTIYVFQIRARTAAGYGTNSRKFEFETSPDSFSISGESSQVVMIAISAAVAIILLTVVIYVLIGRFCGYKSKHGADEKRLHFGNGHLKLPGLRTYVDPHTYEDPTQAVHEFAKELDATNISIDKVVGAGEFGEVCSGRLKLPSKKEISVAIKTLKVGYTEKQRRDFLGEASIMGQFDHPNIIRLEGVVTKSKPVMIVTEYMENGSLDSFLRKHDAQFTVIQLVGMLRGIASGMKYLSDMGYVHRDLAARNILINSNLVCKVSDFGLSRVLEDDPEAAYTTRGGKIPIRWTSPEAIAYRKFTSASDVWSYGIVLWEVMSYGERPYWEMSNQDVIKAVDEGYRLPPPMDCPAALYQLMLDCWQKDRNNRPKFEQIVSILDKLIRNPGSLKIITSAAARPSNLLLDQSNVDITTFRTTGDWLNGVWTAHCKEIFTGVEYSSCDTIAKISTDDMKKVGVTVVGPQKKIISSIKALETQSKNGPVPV
Description: (§1) B16, SKme128, and LnCAP cells were blocked with 2% BSA and rat IgG and probed with engineered anti-EphA3 IgG, chimeric IIIA4 IgG or an isotype control IgG. Bound antibody was detected by an anti-human IgG Phycoerythrin conjugate using a Facs Caliber flow cytometry (BD). Dead cells were excluded by propidium iodide staining For each graph, the control antibody profile is the left-most curve shown in the graph.
(§2) Typically, 3×10⁶ cells of SKme128, LnCAP and B16-F10 were collected by centrifugation at 3000 rpm for 3 minutes. Media were removed and the cells blocked with 2% BSA in PBS for 30 minutes at 4° C. followed by a second block with 10 μg/ml rat IgG for 30 minutes at 4° C. Cells were pelleted, re-suspended in 1.5 ml PBS and divided into 500 μl aliquots. Each aliquot was probed separately with 5 μg/ml of control IgG, humaneered IgG or chimeric IIIA4 IgG for 45 minutes at 4° C. The samples were washed once in PBS and anti-human IgG-phycoerythrin-conjugate was added. After 45 minutes, cells were washed once, re-suspended in PBS and analyzed by flow cytometry using a FACS Caliber flow cytometery. Propidium iodide was added just prior to analysis to exclude dead cells.
(§3) The exemplary engineered antibody was also tested for binding to EphA3 expressed on the surface of live cells. […] Bound antibody was detected using flow cytometry by an anti-human IgG phycoerythrin conjugate (FIG. 5). […]

[2] = biological target: T2, EphA3 expressed on the surface of B16 mouse melanoma cells (mouse, UniProt P29319 21-983); assay: flow cytometry on live B16 cells, 5 ug/ml IgG, anti-human IgG phycoerythrin conjugate [B16]
T2 construct: whole, on cells; Endogenous EphA3 of a tumor cell line known to express EphA3; also called B16-F10
T2 sequence (looked up): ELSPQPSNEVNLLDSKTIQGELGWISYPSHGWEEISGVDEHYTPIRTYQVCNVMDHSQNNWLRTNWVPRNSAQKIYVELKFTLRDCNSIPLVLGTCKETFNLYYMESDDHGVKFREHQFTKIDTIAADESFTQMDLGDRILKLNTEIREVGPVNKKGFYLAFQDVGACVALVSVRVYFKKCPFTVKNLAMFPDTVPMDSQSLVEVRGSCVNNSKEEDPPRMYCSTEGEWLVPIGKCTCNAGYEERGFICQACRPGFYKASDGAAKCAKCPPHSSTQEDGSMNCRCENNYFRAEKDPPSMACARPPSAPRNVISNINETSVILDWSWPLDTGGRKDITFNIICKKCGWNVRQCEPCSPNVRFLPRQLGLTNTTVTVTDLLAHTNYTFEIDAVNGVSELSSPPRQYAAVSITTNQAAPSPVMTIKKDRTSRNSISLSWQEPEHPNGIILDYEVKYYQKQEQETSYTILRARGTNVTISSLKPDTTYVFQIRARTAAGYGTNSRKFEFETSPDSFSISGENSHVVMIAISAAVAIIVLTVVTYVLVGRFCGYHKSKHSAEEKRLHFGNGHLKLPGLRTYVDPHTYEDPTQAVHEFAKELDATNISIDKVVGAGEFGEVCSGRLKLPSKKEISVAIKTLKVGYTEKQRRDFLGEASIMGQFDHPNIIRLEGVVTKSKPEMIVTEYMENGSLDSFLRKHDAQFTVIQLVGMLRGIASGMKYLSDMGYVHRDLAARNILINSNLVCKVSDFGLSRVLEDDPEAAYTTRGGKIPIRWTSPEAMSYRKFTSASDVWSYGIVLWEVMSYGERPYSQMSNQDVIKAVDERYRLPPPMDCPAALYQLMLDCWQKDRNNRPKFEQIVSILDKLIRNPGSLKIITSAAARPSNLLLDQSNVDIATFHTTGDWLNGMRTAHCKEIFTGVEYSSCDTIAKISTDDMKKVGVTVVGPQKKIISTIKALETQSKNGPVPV
Description: as §1, §2, §3

[3] = biological target: T3, EphA3-Fc recombinant fusion protein (UniProt P29320 21-541, limits assumed); assay: ELISA, plate coated with EphA3-Fc, detection with anti-human kappa chain HRP conjugate, A450
T3 construct: also called the antigen
T3 sequence (looked up): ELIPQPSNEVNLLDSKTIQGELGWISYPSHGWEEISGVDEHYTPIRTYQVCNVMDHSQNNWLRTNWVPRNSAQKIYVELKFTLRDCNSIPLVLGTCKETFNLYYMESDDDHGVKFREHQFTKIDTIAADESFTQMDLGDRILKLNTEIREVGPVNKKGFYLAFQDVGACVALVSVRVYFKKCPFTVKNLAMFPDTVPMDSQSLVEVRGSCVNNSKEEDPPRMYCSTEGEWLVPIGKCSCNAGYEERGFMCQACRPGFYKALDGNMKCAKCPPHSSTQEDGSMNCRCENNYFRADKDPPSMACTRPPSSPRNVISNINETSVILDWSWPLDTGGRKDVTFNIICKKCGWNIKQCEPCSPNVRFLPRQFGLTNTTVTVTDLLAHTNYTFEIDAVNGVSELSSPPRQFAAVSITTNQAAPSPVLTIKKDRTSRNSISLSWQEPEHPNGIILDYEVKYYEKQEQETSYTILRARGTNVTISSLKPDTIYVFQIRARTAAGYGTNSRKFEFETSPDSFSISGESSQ
Description: A full-length antibody (IgG1κ) was constructed, expressed from CHO cells and purified by Protein A affinity chromatography. ELISA plates were coated with EphA3-Fc and binding of cIIIA4 IgG, an exemplary engineered IgG, and a control IgG1 were compared (FIG. 3). The EC₅₀ in this assay was approximately three-fold lower for the engineered IgG than for the original chimeric antibody.

[4] = biological target: T3, EphA3-Fc recombinant fusion protein; assay: SPR (Biacore), 25 C, medium density surface, 1:1 model; medium chip density
Method: (§4) Binding kinetics of two engineered Fabs and reference Fab FA106 were analyzed using a Biacore. The three Fabs were diluted from the starting concentration of 500 nM to 100 nM and further tested in a three-fold dilution series using PBS, pH 7.4 with 0.005% Tween-20 and 0.1 mg/ml BSA. Each of the five concentrations was tested three times over the three different density surfaces. Assays were run at 25° C. The response data from each surface were fit to a 1:1 interaction model.

[5] = biological target: T3, EphA3-Fc recombinant fusion protein; assay: SPR (Biacore), 25 C, medium density surface, 1:1 model
Method: as §4

[6] = biological target: T3, EphA3-Fc recombinant fusion protein; assay: SPR (Biacore), 25 C, low density surface, 1:1 model; low chip density
Method: as §4

[7] = biological target: T3, EphA3-Fc recombinant fusion protein; assay: SPR (Biacore), 25 C, low density surface, 1:1 model
Method: as §4

[8] = biological target: T3, EphA3-Fc recombinant fusion protein; assay: SPR (Biacore), 25 C, average of three surface densities, 1:1 model
Method: as §4

[9] = biological target: T3, EphA3-Fc recombinant fusion protein; assay: SPR (Biacore), 25 C, high density surface, 1:1 model
Method: as §4

[10] = biological target: T3, EphA3-Fc recombinant fusion protein; assay: SPR (Biacore), 25 C, high density surface, 1:1 model; high chip density
Method: as §4

B1: Chimeric IIIA4 IgG (antibody, V domains shown)
VH: EVKLEESGAELVKPGSSVKLSCKASGYNFTSYWINWVRLRPGQGLEWIGDIYPGSGNTNYDEKFKRKATLTVDTSSSTAYMQLSSLASEDSALYYCTRSGYYEDFDSWGQGTTLIVSS
VL: DIVLTQTPSSLSASLEERVSLTCRASQEISGYLGWLQQKPDGTIKRLIYAASTLDSGVPKKFSGNRSGSEYSLTISSLESEDFADYYCVQYANYPYTFGGGTKLEIK
notes: also called original chimeric antibody
[1]
  binding result: binds
[2]
  binding result: binds
[3]
  EC50 (read off the curve): ~0.2 µg/mL

B2: optimized reference Fab FA106 (Fab, V domains shown)
VH: B1 VH with S91T, L93V, T97A, L114V, I115T
VL: B1 VL with D85T, G100Q
notes: Fab derived from FA4 with several framework residues changed to human germ-line; Expressed in E. coli
[4]
  koff: 0.00178 s⁻¹
[5]
  Kd: 2.91 nM
  kon: 611000 M⁻¹ s⁻¹
[6]
  koff: 0.0058 s⁻¹
[7]
  Kd: 1.4 nM
  kon: 4.1e+06 M⁻¹ s⁻¹
[8]
  Kd: 2.1 nM
  koff: 0.003 s⁻¹
  kon: 2e+06 M⁻¹ s⁻¹
[9]
  Kd: 2.06 nM
  kon: 1.67e+06 M⁻¹ s⁻¹
[10]
  koff: 0.00345 s⁻¹
